# Experiment: yeast display, Sf9 membrane polyspecificity reagent, FACS + sequencing; frameworks hold sequencing errors
# Procedure, shortened: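 Galactose induction of a Saccharomyces cerevisiae BJ5465 synthetic nanobody display library ran 36–48 hours. The cells were then stained for 1 hour at 4 °C with 10% biotinylated, detergent-solubilized Sf9 membrane reagent, pulled down on streptavidin microbeads and FACS-sorted into low and high (top ~1%) gates on expression and reagent-binding fluorescence. Labels for polyreactivity follow the gate of origin.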
row,Sequence,polyreactivity (PSR sort gate)
1,QVQLVESGGGLVQAGGSLRLSCAASGLTFIPNAMGWDRQAPGKERELVAAISGTGGSTYYADSVKGRFTISRDNAKNTVYLQMNSLKPEDTAVYYCAARRRYKSGYWGQGTQVTVSS,high polyreactivity
2,QVQLVESGGGLVQAGGSLRLSCAASGLTFIRYTRGWYRQAPGKDRELVAAINWSGDSTYYADSVKGRFTISLDNAKITVYLQMNSLKPEDTAVYYFNARRPRFRYDYWGQGTQVTVSW,high polyreactivity
3,QVQLVESGGGLVQAGGSLRLSCAASGLTFIYYAMGWYRQAPGKERELVAAISVSGGSTYYADSVKGRFTISRDNAKNTVYLQMNSLKQEDTAVYYCAADWFVHKPRYQYSFDYWGQGTQVTVSS,low polyreactivity
4,QVQLVESGGGLVQAGGSLRLSCAASGLTFKFNAMGWYRQAPGKERELVAAISFGGDDTYYADSVKGRFTISRDNAKNTVYLQMNSLKPEDTAVYYCAAEYDTWGYSGRDYWGQGTQVTVSS,low polyreactivity
5,QVQLVESGGGLVQAGGSLRLSCAASGLTFKSYAMGWYRQAPGKERELVAVISSSGGRTYYADSVKGRFTISRDNAKNTVYLQMNSLKPEDTAVYYCAADGSYGKWGGHAMYYWGQGTQVTVSS,high polyreactivity
6,QVQLVESGGGLVQAGGSLRLSCAASGLTFKSYAMGWYRQAPVKERELVAGISWSGDSTYYADSVKGRFTISRDNAKNTVYLQMNSLKPEDTAVYYCAAEYSYEYDYWGQGTQVTVSS,high polyreactivity
7,QVQLVESGGGLVQAGGSLRLSCAASGLTFKYYAMGWYRQAPGKERELVAAITATGGLTYYADSEKGRFTISRDNAKKTVYLQMNSLKPEDTAVYYCNARQHQTYYFYKHDYWGQGTQVTVSS,high polyreactivity
8,QVQLVESGGGLVQAGGSLRLSCAASGLTFKYYAMGWYRQATGKERELVARISRGGNTNYADSVKGRFTISRDNAKNTVYLQMNSLKPEDTAVYYCAATVRVYDYWGQGTQVTVSS,high polyreactivity
9,QVQLVESGGGLVQAGGSLRLSCAASGLTFLRNGMGLYRQAPGKERELVASITRSGTRTYYADSVKGRFTISRDNAKNSVYLQMNSLKPEDTAVYYCAARAYVSHYGVSNFGFYYWVQGTQVTVSS,high polyreactivity
10,QVQLVESGGGLVQAGGSLRLSCAASGLTFNHYAMGWYRQAPGKERELVAAISSGSSTDYADSVKGRFTISRDNAKTTVYLQMHSLKPEDTAVYYCAVETPSTWFWGWGYDYDYWGQGTQVTVSS,high polyreactivity
11,QVQLVESGGGLVQAGGSLRLSCAASGLTFPANVMGWYRQAPGKERELVAAISRSGGTTYYADSVKGRFTISRDNAKNTVYLQMNILKPEDTAVYYCAAYQVSYFGGSMDYWGQGTQVTVSS,high polyreactivity
12,QVQLVESGGGLVQAGGSLRLSCAASGLTFPGYAMGWYRQAPGKERELVAGISKRGGSTYYADSVKGRFTISRDNAKNTVYLQMNSLKPEDTAVYYCAAVYRSQSQPYDYWGQGTQVTVSS,high polyreactivity
13,QVQLVESGGGLVQAGGSLRLSCAASGLTFPPNAMGWYRQATGKEREFVAVISSGGGSTYYADSVKVRFTISRDNAKNTVYLQMNSLNPEDTAVYYCATEYQDGETEYYYWGQGTQVTVSS,low polyreactivity
14,QVQLVESGGGLVQAGGSLRLSCAASGLTFPRYAMGGYRQAPGKERELVAAISYRGGRTYYADSVKGRFTISRDNAKNTVYLQMNSLKPEDTAVYYCNADSIYSARGWLYGYWGQGTQVTVSS,low polyreactivity
15,QVQLVESGGGLVQAGGSLRLSCAASGLTFPTYAMRWYRQAPGKERELVAAISRIGGRTYYADSVKGRFSISRDNAKNTVYLQMNSLKPEDTAVYYCAADGIKGGVEYDYWGQGTQVTVSS,high polyreactivity
16,QVQLVESGGGLVQAGGSLRLSCAASGLTFPWYAMGWYRQAPGKERELVASINSSTGSTYYADSVKGRFTISRDNAKNTVYLQMNSLKPEYTAVYYCAAVEYGNMDWGQGTQVTVSS,low polyreactivity
17,QVQLVESGGGLVQAGGSLRLSCAASGLTFPYYVMGWYRQAPGKERELVAAISSSGGSTYYADSVKGRFTISRDNAKNTVYLQMNSLKPEDTAVYYCNAPYVFSAGFDYWGQGTQVTVSS,low polyreactivity
18,QVQLVESGGGLVQAGGSLRLSCAASGLTFQSYAMGWYRQAPGKERELVATISNGSSTYYADSVKGRFTISRDNAKNSVYLQMNSLKPEDTAVYYCAKDYYYSRNPLYGHDYWGQGTQVTVSS,low polyreactivity
19,QVQLVESGGGLVQAGGSLRLSCAASGLTFQYNAMGWYRQAPGKERELVASINSGGSTDYADSVKGRFTISRDNAKNTVYLQMNRLKQEDTAVYYCATSGYWYSASYGYEYWGQGTQVTLSS,low polyreactivity
20,QVQLVESGGGLVQAGGSLRLSCAASGLTFRRYAMGWYRQAPGKERELVAAINSRGGSTYYADSVKGRFTISRDNAKNTVYLQMNSLKPEDTAVYYCATRSFGRMDYWGQGTQVTVSS,high polyreactivity
21,QVQLVESGGGLVQAGGSLRLSCAASGLTFRTYTMGWYRQAPGKERELVAAISSSGSTKYADSVKGRFTISRDNAKNTVYLQMICLKPEDTAVYYCAARGRIYFTQYGYWGQVTQVTVSS,high polyreactivity
22,QVQLVESGGGLVQAGGSLRLSCAASGLTFRVNAMGWYRQAPGKERELVAVISTDGGTTYYADSVKGRFTISRDNAKNTVYLQINSLKPEDTAVYYCAAKYAQVYIWVRQIHFDYWGQGTQVTVSS,low polyreactivity

row,Sequence,polyreactivity (PSR sort gate)
1,QVQLVESGGGLVQAGGSLRLSCAASGLTFRVYAMGWYRQAPGKERELVAAISKRGGSTYYADSVKGRFTISRDNAKNTVYLQMNSLKPEDTAVYYCAAEPPPYEYVYWGQGTQVTVSS,high polyreactivity
2,QVQLVESGGGLVQAGGSLRLSCAASGLTFRYNAMGWYRQAHGKERELVARISRNGGRTYYADSVKGRFTISRDNAKNTVYLQMNSLKPEDSAVYYCNVVYFVTTSPGYDYWGQGTKVTVSS,high polyreactivity
3,QVQLVESGGGLVQAGGSLRLSCAASGLTFRYYAMGWYRQAPGKERELVAAITASVGSTYYADSVKGRFTISRDNAKNTVYLQMNSLKPEDTAVYYCAAEGTPGPGGGYYWGQGTQVTVSS,low polyreactivity
4,QVQLVESGGGLVQAGGSLRLSCAASGLTFRYYTMGLYRQAPGKERELVASITSGGITYYADSVKGRFTISRDNAKNTVYLQMYSLKPEDTAVYYCAKGSYRTTYGALGVKYGYWGQGTQVNVSS,high polyreactivity
5,QVQLVESGGGLVQAGGSLRLSCAASGLTFSDYAMGWYRQAPGKERELVAAITYNGGSTYYADSVKGRFTISRDNAKNTVYLQMNSLKPEDTAVYYCAADTDDVGLRDYWGQGTQVTVSS,low polyreactivity
6,QVQLVESGGGLVQAGGSLRLSCAASGLTFSDYAMGWYRQATGKEREFVAAITRNGGSTRYADSVKGRFTISRDNAKNTVYLQMNSLKPEDTAVYYCAADWSYEYGYWGQGTQVTVSS,low polyreactivity
7,QVQLVESGGGLVQAGGSLRLSCAASGLTFSFYAMGWYIPAPGKDTERVAAISSGGGITYYADSVKGRFTISRDNAKNTVYLQMNSLKPEDTALYYCNTDDYYQYWVPSEYYYCGQGTQVTVSS,low polyreactivity
8,QVQLVESGGGLVQAGGSLRLSCAASGLTFSIYAMGWYRPAPGKERELVAGISQSGGSTYADSVKGRFTISRDNAKNTVYLQMNSLKPEDTAVYYCAKEFEWVGSPSTVDGLEYWGHGTQVTVSS,low polyreactivity
9,QVQLVESGGGLVQAGGSLRLSCAASGLTFSKYAMGWYRQAPGKERELVAAINRSDGGTYYADSVKGRFTISRDNAKNTVYLQMNSLKPEDTAVYYCNAVVLYGWYGRRYSSRLDYWGQGTQVTVSS,high polyreactivity
10,QVQLVESGGGLVQAGGSLRLSCAASGLTFSQNAMGWYRQAPGKERELVAAITRSGSTTHYADSVKGRFTISRDNAKNTVYLQMNSLKPEDTAVYYCAAVAFQTRYYYWGQGTQVTVSS,high polyreactivity
11,QVQLVESGGGLVQAGGSLRLSCAASGLTFSRYAMGWYRQATGKERELVAAITSNGGSTYYADSVKGRFTISRDNAKNTVYLQMNSLKPDDTAVYYCATGYPIDLGREFDYWGQGIQVTVSS,high polyreactivity
12,QVQLVESGGGLVQAGGSLRLSCAASGLTFSRYARGWYRQAPGKERELVAAISGSGGSTYYADSVKGRFTISRDNAKNTVYLQMNSLKPEDTAVYYCNKYRATNSARDYWGQGTQVTVSS,high polyreactivity
13,QVQLVESGGGLVQAGGSLRLSCAASGLTFSTNDMGWYRQAPGKEREFVAAISFNGGSTYYADSVKGRFTLSRDNAKNTVYLQMNSLKPEDTAVYYCAAGSDYGLYYGFDFWGQGTQVTVSS,high polyreactivity
14,QVQLVESGGGLVQAGGSLRLSCAASGLTFSVYAMGWYRQAPGKDRELVAAISGSGGSTYYADSVKGRFTISRDNAKNTVYLQMNSLKPEDTAVYYCAADGRYFRAVFRLYDYWGQGTQVTVSS,low polyreactivity
15,QVQLVESGGGLVQAGGSLRLSCAASGLTFSYYAMGWSRQAPGKERELVAAISRGGRTNYADSVKGRFTISRDNAKNTVYLQMNSLKPEDTAVYYCAARFVVQGHSSPYDYWGQGTQVTVSS,high polyreactivity
16,QVQLVESGGGLVQAGGSLRLSCAASGLTFSYYAMGWYRQAPGKERELVAASSWSGGSTYYADSVKGRFTISRDNAKNTVYLQMNSLKPDDTAVYYCAKYPNRHYWYDYWGQGTQVTVSS,low polyreactivity
17,QVQLVESGGGLVQAGGSLRLSCAASGLTFTPNAMGWYRQAPGKEREFVAAITWRGGRTYYADSVKGRFTISRDNAKNTVYLQMNSLKPEDTAVYYCAADSFKGYDYWGQGTQVTVSS,high polyreactivity
18,QVQLVESGGGLVQAGGSLRLSCAASGLTFTTYAMGWYRQAPGKERELVAAISRRGSRTYYADSVKGRFTISRDNAKNTVYLQMNSLKPEDTAVYYCARRAGSYPYGYTGYDYWGQGTQVTVSS,high polyreactivity
19,QVQLVESGGGLVQAGGSLRLSCAASGLTFTYNAMGWYRQAPGKERELVAAISKRGGSTYYADSVKGRFTISRDNAKNTVYLQMNSLKPEDTAVYYCNARTTTRSYPAFDYWGQGTQVTVSS,high polyreactivity
20,QVQLVESGGGLVQAGGSLRLSCAASGLTFVAYGMGWYRQAPGKERELVATIRWRGGSTYYADSVKGRFTISRDNAKNTVYLQMNSLKPEDTAVYYCAATRARRWSSPGQYGYWGQGTQVTVSS,high polyreactivity
21,QVQLVESGGGLVQAGGSLRLSCAASGLTFVTYAKGWYRQAPGKERELVAAISYSGGSTYYADSVKGRFTISRDNAKNTVYLQMNSLKPEDTAVYYCNARSPQPDGRPPYNYWGQGTQVTVSS,high polyreactivity

# From the nanobody polyreactivity screen of Harvey et al. (2022)
